According to patent US20240076680 (RHEINISCHE FRIEDRICH-WILHELMS-UNIVERSITÄt BONN, published 2024):

B1: SP7 (ssDNA)
DNA: GGGAGAGGAGGGAGATAGATATCAAAGGAGGGTAGGTAGTGCTTGGTAGGGAAACTCCGCCGATTTTTCGTGGATGCCACAGGAC
B2: SP8 (ssDNA)
DNA: GGGAGAGGAGGGAGATAGATATCAAAAGGAGGGTAGGTAGTGCTTGGTAGGGAAACTCCGCCGATTTTTCGTGGATGCCACAGGAC
B3: SP6 (ssDNA)
DNA: GGGAGAGGAGGGAGATAGATATCAACCCATGGTAGGTATTGCTTGGTAGGGATAGTGGGCTTGATGTTTCGTGGATGCCACAGGAC
B4: SP5 (ssDNA)
DNA: GGGAGAGGAGGGAGATAGATATCAACCATGGTAGGTATTGCTTGGTAGGGATAGTGGGCTTGATGTTTCGTGGATGCCACAGGAC

These binders were tested against ACE2 ectodomain (ACE2e) (Homo sapiens, UniProt Q9BYF1 Q9BYF1:19-615) (assay: flow). Details: tags: N-terminal myc, C-terminal HRV 3C site and 8xHis; FreeStyle 293F expressed.
Chain of ACE2 ectodomain (ACE2e) (Q9BYF1 19-615, one chain of several): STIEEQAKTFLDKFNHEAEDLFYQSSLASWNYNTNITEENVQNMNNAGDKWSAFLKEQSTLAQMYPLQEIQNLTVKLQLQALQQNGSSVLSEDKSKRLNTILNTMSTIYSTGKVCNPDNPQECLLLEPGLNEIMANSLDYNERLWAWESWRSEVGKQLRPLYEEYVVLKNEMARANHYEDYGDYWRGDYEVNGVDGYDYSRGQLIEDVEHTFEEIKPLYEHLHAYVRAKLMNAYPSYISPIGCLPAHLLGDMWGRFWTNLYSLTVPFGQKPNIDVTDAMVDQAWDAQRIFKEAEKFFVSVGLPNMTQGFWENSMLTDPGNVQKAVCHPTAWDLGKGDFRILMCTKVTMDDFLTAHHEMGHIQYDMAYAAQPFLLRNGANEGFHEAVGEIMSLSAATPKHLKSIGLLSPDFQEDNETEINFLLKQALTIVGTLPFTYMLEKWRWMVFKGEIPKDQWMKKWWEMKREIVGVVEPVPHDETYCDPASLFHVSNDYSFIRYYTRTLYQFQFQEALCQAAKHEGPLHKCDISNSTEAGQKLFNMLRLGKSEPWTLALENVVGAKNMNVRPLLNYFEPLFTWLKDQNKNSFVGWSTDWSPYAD

| Binder | binding result |
| --- | --- |
| B1 | no binding |
| B2 | no binding |
| B3 | no binding |
| B4 | no binding |

What follows are binders tested against SARS-CoV-2 spike receptor-binding domain (RBD) (SARS-CoV-2, UniProt P0DTC2 P0DTC2:319-591) (assay: flow). Details: not given.

| Binder | binding result |
| --- | --- |
| B1 | no binding |
| B2 | no binding |
| B3 | no binding |
| B4 | no binding |
